Laboratory results as given in publication PMC10975748.

Molecular target: voltage-gated potassium channel Kv1.3 (UniProt P22001)
Sequence (P22001 whole entry): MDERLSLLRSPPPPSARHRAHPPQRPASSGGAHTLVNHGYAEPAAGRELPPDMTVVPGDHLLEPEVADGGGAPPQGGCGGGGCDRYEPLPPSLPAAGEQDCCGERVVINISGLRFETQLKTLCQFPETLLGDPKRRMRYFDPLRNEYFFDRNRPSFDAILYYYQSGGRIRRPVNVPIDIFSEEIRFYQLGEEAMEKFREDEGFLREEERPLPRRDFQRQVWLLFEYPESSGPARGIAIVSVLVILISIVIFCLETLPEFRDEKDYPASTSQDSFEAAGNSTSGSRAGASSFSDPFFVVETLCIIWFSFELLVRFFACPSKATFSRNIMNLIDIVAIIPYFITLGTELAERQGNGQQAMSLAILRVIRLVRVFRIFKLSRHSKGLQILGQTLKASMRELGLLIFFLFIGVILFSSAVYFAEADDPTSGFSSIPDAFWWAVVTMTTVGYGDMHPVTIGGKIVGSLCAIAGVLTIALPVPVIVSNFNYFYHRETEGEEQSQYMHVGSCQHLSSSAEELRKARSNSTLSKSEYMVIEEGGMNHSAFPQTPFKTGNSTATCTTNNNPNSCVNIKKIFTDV

mCherry-Vm24 was tested. Which Kd from electrophysiological assays did it give?
Its Kd from electrophysiological assays is 275 pM.
